Reference: patent publication US7056679 (ANTYRA, dated 2006)

B1: DGI9-20M-4-A414 (peptide)
peptide: FLLQDFIMDAGSFVKPIGVGGAPVPYPDPLEPR
notes: library 20F; not shown: phage gene III coat protein (pCANTAB5E)
B2: DGI-2-40F-3-B95 (peptide)
peptide: DYKTCVSQHVHPLFGEYFYHKVTHMSILSPTFRVTSLYGKAAAGAPVPYPDPLEPRP
notes: not shown: phage gene III coat protein (pCANTAB5E)
B3: DGI-2-40F-3-D3 (peptide)
peptide: VQFAMTLSSRLWQHARHPLTDDAPPTVSFGTRRETLAGKAAAAGAPVPYPDPLEPRP
notes: as for B2
B4: DGI-2-40F-3-A7 (peptide)
peptide: CAYRWGLFRGPGRVDYDLQVVGIMMWPGPIPDRSSRGSVAAAAGAPVPYPDPLEPRP
notes: as for B2
B5: DGI-2-40F-3-A12 (peptide)
peptide: RRTQPAYRSGADDRTSGFYCYVTSALSAGAWMPFLPRRLAAAAGAPVPYPDPLEPRP
notes: as for B2
B6: DGI9-20M-4-A12 (peptide)
peptide: SRLALSSQHGLSLVAGRRRGGAPVPYPDPLEPR
notes: library 20R (the E-tag is described for library 20F); not shown: phage gene III coat protein (pCANTAB5E)
B7: DGI-2-40F-3-D1 (peptide)
peptide: MGQGFHYNRQPYMSHQCYAFTFSTPFLDGDRIPHGVSRGLAAAGAPVPYPDPLEPRP
notes: as for B2
B8: DGI-2-40F-3-B1 (peptide)
peptide: HGTRLRGVDYVMTWAGWQGYSSRKHVQQAVAGSSPGSDELAAAGAPVPYPDPLEPRP
notes: as for B2
B9: DGI9-20M-4-E3 (peptide)
peptide: MAGFRGSGLSGYSEARLPRVGAPVPYPDPLEPR
notes: as for B1
B10: DGI-2-40F-3-B5 (peptide)
peptide: RSRSSSGASGSMLRVQNHMVLGSWMVRQPMGSMTPFHGHGAAAGAPVPYPDPLEPRP
notes: as for B2
B11: DGI-2-40F-3-B4 (peptide)
peptide: LWLPCGLLVRPAQFYFYFSPLRHFLSSSVGSLSFPLSLLVAAAGAPVPYPDPLEPRP
notes: as for B2
B12: DGI-2-40F-3-A1 (SEQ ID NO: 187) (peptide)
peptide: QYFARGSFQFGLSHVLSAAAAFHLYVFCKRLSRGFGIKDDAAAGAPVPYPDPLEPRP
notes: as for B2
B13: DGI9-20M-4-A627 (peptide)
peptide: WDWSRFGAQLRGAILGRATGGAPVPYPDPLEPR
notes: as for B6
B14: DGI-2-40F-3-B6 (peptide)
peptide: QSNVWVLVGVIMQGVWYQRQHYCVYVMLLSDQVSVLLAVAAAAGAPVPYPDPLEPRP
notes: as for B2
B15: DGI-2-40F-3-A8 (peptide)
peptide: GQISLAGVAVCSSERMLLAFSSRVFLPGLKVPVTTSQRGSAAAGAPVPYPDPLEPRP
notes: as for B2

Tests used:
[1] = biological target: T1, antibody raised against ETAG; assay: phage ELISA; anti-E-tag antibody coated
T1 construct: read-out of display; also called E-tag antibody; E tag antibody

[2] = biological target: T2, DGI-9 (HEC) (UniProt O14777 1-642, limits assumed); assay: phage ELISA; DGI-9 signal over LDH signal
T2 sequence (looked up): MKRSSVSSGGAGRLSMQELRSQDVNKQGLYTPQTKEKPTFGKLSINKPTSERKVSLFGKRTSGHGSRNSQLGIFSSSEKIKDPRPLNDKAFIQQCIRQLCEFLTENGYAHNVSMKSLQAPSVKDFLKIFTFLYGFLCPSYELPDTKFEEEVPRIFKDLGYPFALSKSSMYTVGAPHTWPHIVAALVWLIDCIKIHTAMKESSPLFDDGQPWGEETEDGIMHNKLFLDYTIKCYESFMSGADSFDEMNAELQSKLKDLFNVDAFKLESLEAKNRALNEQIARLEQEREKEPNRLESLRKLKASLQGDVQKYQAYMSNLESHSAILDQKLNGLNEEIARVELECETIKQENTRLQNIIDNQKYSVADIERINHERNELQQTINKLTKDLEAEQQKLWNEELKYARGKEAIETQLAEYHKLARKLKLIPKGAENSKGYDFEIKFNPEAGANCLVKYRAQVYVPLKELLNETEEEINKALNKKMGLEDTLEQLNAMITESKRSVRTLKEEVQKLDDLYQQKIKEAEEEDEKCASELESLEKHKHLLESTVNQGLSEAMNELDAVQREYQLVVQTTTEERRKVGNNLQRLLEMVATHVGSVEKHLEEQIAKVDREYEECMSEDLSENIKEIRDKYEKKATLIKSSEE

[3] = biological target: T2, DGI-9 (HEC); assay: phage ELISA; DGI-9 coated
[4] = biological target: T3, DGI-2 polypeptide (UniProt Q15004 1-111, limits assumed); assay: phage ELISA, 405 nm; DGI-2 signal over LDH signal
T3 construct: Vector-derived residues or tag of pIVEX2.3 are not described for this construct; also called KIAA0101
T3 sequence (looked up): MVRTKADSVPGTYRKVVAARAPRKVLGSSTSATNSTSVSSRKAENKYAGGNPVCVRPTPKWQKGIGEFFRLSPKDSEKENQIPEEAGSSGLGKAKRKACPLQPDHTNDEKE
Method: (§1) For analysis of individual target binders, colonies were picked and phage prepared as described above using helper phage, M13KO7. Ninety-six-well microtiter plates were coated with 500 ng/well of specific target protein, 500 ng/well lactate dehydrogenase (LDH) irrelevant or non-specific target, 500 ng/well of positive control antibody raised against ETAG, and negative control of non-fat milk powder-PBS 2% at 4° C. overnight. Plates were then blocked with 350 microliters/well PBS containing 2% non-fat milk for 1 hr at room temperature. One hundred microliters per well of phage from isolated clones were added and plates were incubated at room temperature for 2 hr after centrifuging samples for 20 minutes at 3500 rpm at 4° C. The phage solution was then removed, and the wells were washed three times with PBS at room temperature. Antibody raised against M13 conjugated to horseradish peroxidase (Pharmacia) was diluted 1:3000 in PBS-Tween and added to each well (100 µl/well). Incubation was for 1 hr at room temperature, followed by washing with PBS-(0.5%) Tween 3 times as described. Color was developed by addition of ABTS solution (100 µl/well; Boehringer, Indianapolis, Ind.). Plates were analyzed at 405 nm. A clone was considered "positive" if the $A405$ of the well was $\geq$2-fold over background.

[5] = biological target: T1, antibody raised against ETAG; assay: phage ELISA, 405 nm; anti-E-tag antibody coated
Method: as §1

[6] = biological target: T3, DGI-2 polypeptide; assay: phage ELISA, 405 nm; DGI-2 coated
Method: as §1

Binder	E-Tag [1]	DGI9/LDH [2]	DGI-9 [3]	DGI-2/LDH (OD) [4]	ETAG (OD) [5]	DGI-2 (OD) [6]
B1	32.6 ratio over background	8.1 ratio	8.7 ratio over background	–	–	–
B2	–	–	–	1.2 ratio	5.4 OD	1 OD
B3	–	–	–	1.1 ratio	0.9 OD	0.9 OD
B4	–	–	–	1.1 ratio	8.7 OD	0.9 OD
B5	–	–	–	1.1 ratio	4.6 OD	0.9 OD
B6	20.7 ratio over background	2.1 ratio	1.9 ratio over background	–	–	–
B7	–	–	–	1 ratio	4.1 OD	0.8 OD
B8	–	–	–	1.2 ratio	6.3 OD	0.8 OD
B9	34.5 ratio over background	7.1 ratio	7 ratio over background	–	–	–
B10	–	–	–	1.2 ratio	9.2 OD	1 OD
B11	–	–	–	1.1 ratio	1.5 OD	1 OD
B12	–	–	–	1.1 ratio	2.4 OD	0.8 OD
B13	27.2 ratio over background	6.5 ratio	6 ratio over background	–	–	–
B14	–	–	–	1.2 ratio	1.8 OD	0.9 OD
B15	–	–	–	1.1 ratio	1.5 OD	0.8 OD
